Experimental data from patent US20200262928A1 (GREEN CROSS, published 2020).

Experiments:
[1] = biological target: human MSLN expressed on cancer cell surface (human) (UniProt Q13421); assay: flow cytometry on H226 cells expressing MSLN, control antibody, PE-conjugated anti-human IgG detection
[2] = biological target: human MSLN expressed on cancer cell surface (human) (UniProt Q13421); assay: flow cytometry on AsPC1 cells expressing MSLN, control antibody, PE-conjugated anti-human IgG detection
[3] = biological target: human MSLN expressed on cancer cell surface (human) (UniProt Q13421); assay: flow cytometry on Capan2 cells expressing MSLN, control antibody, PE-conjugated anti-human IgG detection
[4] = biological target: human MSLN expressed on cancer cell surface (human) (UniProt Q13421); assay: flow cytometry on PL45 cells expressing MSLN, control antibody, PE-conjugated anti-human IgG detection
recombinant human MSLN = biological target: T1, recombinant human MSLN (human, UniProt Q13421 296-580, limits assumed); assay: BLI (Octet), MSLN on anti-Penta His sensor, antibody 3.125-50 nM
T1 construct: It was fixed to an anti-Penta His (HIS1K) sensor, so a His tag is implied; also called recombinant MSLN; mesothelin
Experimental: Specifically, recombinant human MSLN was prepared at a concentration of 5 μg/ml in 1× kinetic buffer and used to treat a 96-well-plate at 200 μl/well. The MSLN after treatment was fixed to the anti-Penta His (HIS1K, Cat #18-5121, Fortebio) sensor.
Then, the 3 humanized anti-MSLN antibodies produced in accordance with Example 1 and the mouse human chimeric MI323 IgG1 clones were diluted to a concentration of 50, 25, 12.5, 6.25, or 3.125 nM in 1× kinetic buffer, and treatment therewith was performed at 200 μl/well. For the 1×kinetic buffer, one obtained by 10-fold dilution of 10×kinetic buffer (ForteBio, Cat #18-1092) with PBS was used.
The interaction between the MSLN fixed to the sensor and the antibody at several concentrations was analyzed to calculate antigen-antibody affinity, and the results are shown in Table 4 below.

Sequence of human MSLN expressed on cancer cell surface (human) (Q13421 other isoform, or with tags, fused parts or gaps limits assumed): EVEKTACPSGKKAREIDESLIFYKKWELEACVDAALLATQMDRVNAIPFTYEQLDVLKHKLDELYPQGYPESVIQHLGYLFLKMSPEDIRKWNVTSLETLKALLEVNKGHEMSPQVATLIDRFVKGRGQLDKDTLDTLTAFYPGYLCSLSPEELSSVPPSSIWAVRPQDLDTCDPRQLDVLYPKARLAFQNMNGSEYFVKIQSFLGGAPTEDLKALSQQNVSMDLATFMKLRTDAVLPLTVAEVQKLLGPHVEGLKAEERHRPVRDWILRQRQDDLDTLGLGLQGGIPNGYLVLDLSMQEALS
T1 sequence (Q13421 other isoform, or with tags, fused parts or gaps limits assumed): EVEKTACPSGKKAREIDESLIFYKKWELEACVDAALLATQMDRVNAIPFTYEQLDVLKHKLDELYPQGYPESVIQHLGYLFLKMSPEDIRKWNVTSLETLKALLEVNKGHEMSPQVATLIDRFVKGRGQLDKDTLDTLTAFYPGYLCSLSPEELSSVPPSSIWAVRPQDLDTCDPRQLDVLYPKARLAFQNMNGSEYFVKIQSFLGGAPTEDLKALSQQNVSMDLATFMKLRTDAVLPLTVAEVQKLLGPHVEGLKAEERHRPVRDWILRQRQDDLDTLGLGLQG

| MFI [1] | MFI [2] | MFI [3] | MFI [4] | Kd (recombinant human MSLN) | koff (recombinant human MSLN) | kon (recombinant human MSLN) | Molecule |
| --- | --- | --- | --- | --- | --- | --- | --- |
| 120 | 85.9 | 169 | 96.5 |  |  |  | hIgG (antibody) |
|  |  |  |  | 0.0286 nM | 1.3e-05 s⁻¹ | 454000 M⁻¹ s⁻¹ | mouse/human chimeric MI323 IgG1 (antibody, V domains shown, Control antibody; also called mouse human chimeric MI323 IgG1 antibody; MI323 antibody) VH: EVQLQQSGPELVKPGTSVKISCKASGYSFTSYFIQWVKQRPGQGLEWIGWIFPGSGNTKYNEMFKGKATLAADTSSSTAYMQLSSLTSEDSAVYFCARSGGYQYYFDYWGQGTSVTVSS VL: DIVMTQSHKFMSTSVGDRVSITCKASQDVSTAVAWYQQKPGQSPKLLIYSASYRYPGVPDRFTGSGSGTDFTFTISSVQAEDLALYYCQQHYSTPWTFGGGTKLEIKR |
|  |  |  |  | 0.0327 nM | 2.75e-05 s⁻¹ | 842000 M⁻¹ s⁻¹ | HMI323VL-1/HMI323VH-3 IgG1 (antibody, V domains shown, also called humanized MI323 IgG1) VH: EVQLVQSGAEVKKPGTSVKVSCKASGYSFTSYFIQWVRQAPGQGLEWIGWIFPGSGNTKYSQKFQGRVTITRDTSTSTAYMELSSLRSEDTAVYYCARSGGYQYYFDYWGQGTLVTVSS VL: DIQMTQSPSSLSASVGDRVTITCRASQDVSTAVAWYQQKPGKAPKLLIYSASYRYPGVPSRFSGSGSGTDFTLTISSLQPEDFATYYCQQHYSTPWTFGGGTKLEIKR |
|  |  |  |  | 0.273 nM | 0.000509 s⁻¹ | 1.86e+06 M⁻¹ s⁻¹ | HMI323VL-1/HMI323VH-2 (antibody, human IgG1, kappa, V domains shown, also called humanized MI323 IgG1 (VL-1/VH-2)) VH: QVQLVQSGAEVKKPGSSVKVSCKASGYSFTSYFISWVRQAPGQGLEWMGGIFPGSGNANYAQKFQGRVTITADESTSTAYMELSSLRSEDTAVYYCARSGGYQYYFDYWGQGTLVTVSS VL: DIQMTQSPSSLSASVGDRVTITCRASQDVSTAVAWYQQKPGKAPKLLIYSASYRYPGVPSRFSGSGSGTDFTLTISSLQPEDFATYYCQQHYSTPWTFGGGTKLEIKR |
|  |  |  |  | 0.139 nM | 9.25e-05 s⁻¹ | 665000 M⁻¹ s⁻¹ | HMI323VL-1/HMI323VH-1 (antibody, human IgG1, kappa, V domains shown, also called humanized MI323 IgG1 (VL-1/VH-1)) VH: QVQLVQSGAEVKKPGASVKVSCKASGYSFTSYFMHWVRQAPGQRLEWMGWIFPGNGNTKYSQKFQGRVTITRDTSASTAYMELSSLRSEDTAVYYCARSGGYQYYFDYWGQGTLVTVSS VL: DIQMTQSPSSLSASVGDRVTITCRASQDVSTAVAWYQQKPGKAPKLLIYSASYRYPGVPSRFSGSGSGTDFTLTISSLQPEDFATYYCQQHYSTPWTFGGGTKLEIKR |
